One data set deals with T1, human NTCP Y146A mutant (Homo sapiens, UniProt Q14973, Y146A).
T1 construct: expressed in transfected cells; host or cells: HepG2 or Huh7 cells, lentiviral transduction
T1 sequence (Q14973 1-349 Y146A): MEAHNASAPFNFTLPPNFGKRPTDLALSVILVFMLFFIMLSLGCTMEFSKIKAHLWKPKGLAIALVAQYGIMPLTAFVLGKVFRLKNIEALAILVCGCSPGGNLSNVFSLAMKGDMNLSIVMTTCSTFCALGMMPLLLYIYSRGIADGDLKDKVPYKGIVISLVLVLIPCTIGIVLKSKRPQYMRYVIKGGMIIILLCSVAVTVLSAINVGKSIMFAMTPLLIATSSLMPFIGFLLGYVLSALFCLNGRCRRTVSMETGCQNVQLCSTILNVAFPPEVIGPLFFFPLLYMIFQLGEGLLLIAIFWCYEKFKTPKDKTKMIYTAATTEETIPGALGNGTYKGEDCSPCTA
The data set can be described thus: Antibody binding to NTCP mutant (epitope mapping). The following applies: FIG. 5A, left. On the procedure: (§1) To establish NTCP expression cells, HepG2 cells or Huh7 cells were infected with a lentiviral vector having a nucleic acid encoding a wild-type NTCP or each of NTCP mutants. Forty-eight hours after infection, the cells were subjected to an immunofluorescence assay or a viral infection assay.
(§2) Huh7 cells expressing a wild-type NTCP or each of the NTCP mutants were fixed with 4% paraformaldehyde, and then, a permeation treatment with 0.3% Triton X-100 was performed. Each of the NTCPs was detected by using N6HB426-20 antibody or HE1-9-10 antibody (dilution ratio: 1:200) and an Alexa Fluor488-conjugate goat anti-mouse IgG antibody (secondary antibody) (Thermo Fisher Scientific) (dilution ratio: 1:1000). Imaging of the cells was carried out by use of a laser scanning confocal microscope using FLUOVIEW fv1000 and IX73 (OLYMPAS).
(§3) In this manner, the relationship with a region important for HBV infection was clarified. Sensitivity to HBV infection, a change in inhibitory activity of the antibody and contribution of a predetermined amino acid residue to FACS analysis were evaluated by alanine scanning method and use of an NTCP mutant transfectant. […] However, both ends of the amino acid residues at positions 276-277 (i.e., amino acid residues at positions 274-275 and 278-279) serve as an epitope involved in HBV infection. […] The phenomenon was further precisely analyzed. […]

The target in data set [1] is T2, human NTCP triple mutant (YDD146, 149, and 152AAA) (Homo sapiens, UniProt Q14973, D149A/D152A/Y146A).
T2 construct: expressed in transfected cells; host or cells: HepG2 or Huh7 cells, lentiviral transduction
T2 sequence (Q14973 1-349 Y146A/D149A/D152A): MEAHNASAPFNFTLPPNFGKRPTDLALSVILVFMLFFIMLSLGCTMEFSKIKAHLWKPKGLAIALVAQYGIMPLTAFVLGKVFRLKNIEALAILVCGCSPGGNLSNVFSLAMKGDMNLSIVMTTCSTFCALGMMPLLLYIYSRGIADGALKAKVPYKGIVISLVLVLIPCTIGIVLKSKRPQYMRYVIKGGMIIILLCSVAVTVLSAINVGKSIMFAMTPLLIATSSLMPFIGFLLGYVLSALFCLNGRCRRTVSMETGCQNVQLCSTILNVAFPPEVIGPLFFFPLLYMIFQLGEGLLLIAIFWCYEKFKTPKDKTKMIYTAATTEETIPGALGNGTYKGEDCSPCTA
The data set can be described thus: Antibody binding to NTCP mutant (epitope mapping). The note with it: FIG. 5B. On the procedure: as §1, §2, §3

The subject of data set [2] is HBV (Genotype C or Genotype D).
A further data set addresses T3, human NTCP (Homo sapiens, UniProt Q14973).
T3 construct: expressed in transfected cells; host or cells: HepG2 cells, lentiviral transduction
T3 sequence (Q14973 1-349): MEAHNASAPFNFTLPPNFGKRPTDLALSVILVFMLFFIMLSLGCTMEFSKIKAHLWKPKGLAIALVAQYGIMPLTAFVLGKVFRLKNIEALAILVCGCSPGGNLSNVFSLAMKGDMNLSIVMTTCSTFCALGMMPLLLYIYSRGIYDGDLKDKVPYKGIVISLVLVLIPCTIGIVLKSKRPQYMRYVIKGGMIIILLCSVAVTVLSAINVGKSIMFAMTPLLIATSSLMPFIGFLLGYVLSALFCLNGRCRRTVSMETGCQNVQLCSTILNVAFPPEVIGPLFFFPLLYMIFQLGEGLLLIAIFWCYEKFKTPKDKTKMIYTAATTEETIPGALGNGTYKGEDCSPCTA
The data set can be described thus: In vitro bile acid ([3H]-taurocholic acid) uptake in human NTCP-expressing HepG2 (Example 1). Format: cell-based.

The subject of a further data set is pseudo-HBV (HBV/NL). In words: Infection inhibitory activity test using pseudo-HBV with integrated NanoLuc gene (Example 1). Format: cell-based, hepatitis B virus (HBV). The following applies: pseudo-virus, FIG. 1A. The method, then:
The culture supernatant of 61,500 hybridomas was allowed to react with B lymphoma cell line forcibly expressing hNTCP and a parent cell line, washed and stained with a fluorescence-labeled anti-mouse IgG antibody. Screening was carried out by FACS to obtain 700 hybridoma cell lines producing an antibody that binds to an NTCP. The positive-hybridoma culture supernatant was screened by an HBV inhibitory activity test using a pseudo-virus. […] Using the culture supernatant of each clone, the test was repeated. As is apparent from FIG. 1A, hybridoma clones producing an antibody, which lowers an HBV infection rate but not viability of cells, were obtained.
The clone-derived antibodies established were purified and the activities of them were checked again by a test for infection inhibitory activity using pseudo-HBV obtained by integrating a NanoLuc gene into the genome.

B1: N6HB426-20 antibody: anti-human NTCP monoclonal antibody from a sub-clone of N6HB426 hybridoma; VH SEQ ID NO: 3, VL SEQ ID NO: 4 (antibody, V domains shown)
VH: QVQLQQSGAELVKPGASVKLSCKASDFTFTEYTIHWIKQMSGQGLEWIGWFYPGSGDIKYSEKFKDKATLTADKSSSTVYMELNRLTSEDSAVYFCARHMRDFRGFYYGRFYFDYWGQGTTLTVSS
VL: EIVLTQSPAIMSASPGEKVTITCRASSSVSSSYLHWYQQKSGVSPKLWIYSTSNLASGVPARFSGSGSGTSYSLTINSVEAEDAATYYCQQYSGYRWTFGGGTTLEIKRA
modifications: N6HB426 antibody heavy chain variable region; N6HB426 antiibody light chain variable region
For B1, the “binding to single mutant Y146A” value in the data set with human NTCP Y146A mutant is listed as “significantly low binding”. In data set [1], the “binding to triple mutant (YDD146, 149, and 152AAA)” value is listed as “weak binding”. Further, the “inhibitory activity on infection of normal human hepatocytes with HBV” value in data set [2] is “comparable to preS1”. The “inhibition of bile acid uptake” value is on record as 3% in the data set with human NTCP (1000 nM, 1 µM); “at most 2%” in the data set with human NTCP (1000 nM, listed as purified N6HB426 antibody, 1 µM); “virtually did not inhibit” with human NTCP (at concentration required for inhibition of infection (IC50 20 to 30 nM)). Moreover, the “HBV inhibitory activity of hybridoma culture supernatant” value with pseudo-HBV (HBV/NL) is on record as “comparable to preS1 peptide”.

The values above are taken from patent US12497461B2, “Human NTCP-binding antibody capable of inhibiting infection of hepatitis B virus (HBV) to human hepatocytes” (priority 2019, dated 2025).
